Patent US9487561B2, “Biologically active complex and its preparation” (HAMLET PHARMA AB, priority 2010, dated 2016)

Tests used:
bladder cancer [1] = settings: local instillations; cited from earlier work
[2] = test system: human lung carcinoma (A549) cells; test: extended microarray analysis (Illumina HumanHT-12); format: cell-based
Description: (§1) For the extended microarray analysis, gene expression was assessed by whole genome Illumina microarrays (HumanHT-12 Expression BeadChip). Data was normalized using cross-correlation (Chua et al., 2006 Nucleic Acids Research 34: e38). Genes with a log 2 fold change ≧1.2 in tumor cells and ≧2.0 in healthy, differentiated cells at any time point were regarded as differentially expressed (Benjamini-Hochberg adjusted p-value <0.05).
(§2) To identify the pathways that execute tumor cell death downstream of the ion channels, we further examined the global transcriptional responses to HAMLET in human lung carcinoma (A549) and kidney carcinoma (A498) cells over an extended period of 15 min to 24 hours. The p38 MAPK signaling pathway was identified as a top-scoring canonical pathway in A549 cells (FIG. 4A).

[3] = test system: p38, HSP27 in healthy, differentiated kidney cells; test: MAPK phosphorylation in healthy cells; format: cell-based, human
bladder cancer [4] = settings: mouse, in vivo; cited from earlier work
glioblastoma xenograft = settings: rat, in vivo; cited from earlier work
[5] = test system: kidney carcinoma (A498) cells; test: extended microarray analysis (Illumina HumanHT-12); format: cell-based, human
Description: as §1, §2
(§3) To examine the molecular basis of the difference in HAMLET susceptibility between carcinoma cells and healthy, differentiated cells, transcriptional profiles were compared. […] These cytokines were not secreted by the carcinoma cells.

[6] = test system: Human renal tubular epithelial cells (HRTEC); test: Ca^2+ and K^+ levels in healthy, differentiated cells in primary culture; format: cell-based; settings: HAMLET 35 μM
Description: Human renal tubular epithelial cells (HRTEC) were preincubated with Fluo-4 as described, exposed to HAMLET (35 μM) and examined by real time confocal microscopy.
To further characterize ion channel activation by HAMLET, carcinoma cells were pretreated with defined channel blockers. Amiloride is a sodium channel inhibitor with effects on mechanosensitive channels, barium chloride (BaCl2) is a general K^+ channel inhibitor, gadolinium chloride (GdCl3) inhibits mechanosensitive channels, Ruthenium red is a general Ca^2+ inhibitor and tetrandrine inhibits large conductance, Ca^2+ activated K^+ channels. The carcinoma cells were preincubated with Fluo-4 as described above, pretreated with each of the channel inhibitors for 30 minutes, exposed to HAMLET (35 μM) and examined by real time confocal imaging. Furthermore, cells treated with EGTA were compared to cells with intact extracellular Ca^2+ levels, to distinguish the early peak from the subsequent influx of Ca^2+ (FIG. 1B, Table in FIG. 8).

skin papillomas = settings: topical administration, placebo controlled; cited from earlier work
[7] = test system: healthy, differentiated pediatric kidney cells; test: extended microarray analysis (Illumina HumanHT-12); format: cell-based, human
Description: as §1, §3

B1: HAMLET (protein, UniProt P00709 20-142, looked up)
Alpha-lactalbumin: KQFTKCELSQLLKDIDGYGGIALPELICTMFHTSGYDTQAIVENNESTEYGLFQISNKLWCKSSQVPQSRNICDISCDKFLDDDITDDIMCAKKILDIKGIDYWLAHKALCTEKLEQWLCEKL
modifications: oleic acid complex
death of tumor cells vs healthy tissue (bladder cancer [1]): caused rapid death of tumor cells but not of healthy tissue surrounding the tumor | DUSP1 upregulation [2]: 1.34 log 2-fold change | DUSP10 upregulation [2]: 1.98 log 2-fold change | number of genes with minimum log 2-fold change of 1.2 compared to PBS-treated control cells ([2]; adjusted p-value <0.05): Three hundred sixty-seven | phosphorylation of p38, its isoforms, or HSP27 [3]: no phosphorylation of p38, its isoforms, or HSP27 | therapeutic efficacy in bladder cancer (bladder cancer [4]): Therapeutic efficacy | cell death in healthy brain tissue (glioblastoma xenograft): without evidence of cell death in healthy brain tissue | tumor progression and survival (glioblastoma xenograft): delayed tumor progression and led to increased survival | number of genes responding to HAMLET [5]: 4424 genes | Ca^2+ response in HRTECs [6]: weak and transient Ca^2+ response | duration of Ca^2+ response in HRTECs [6]: about 90 seconds | effect on skin papillomas (skin papillomas): removed or reduced the size of skin papillomas | number of genes responding to HAMLET [7]: 2064 genes
